Biological target: type 1 ryanodine receptor (RyR1), endogenous channel from mouse skeletal muscle (mouse (endogenous in mouse skeletal muscle)) (UniProt E9PZQ0)
Experiment: cryo-EM structure; endogenous RyR1 purified from mouse skeletal muscle, ~15 uM protomer, in CHAPS/DOPC buffer; with 5 mM EGTA only or with 10 mM ATP, 5 mM caffeine, 30 uM free Ca2+, with or without 10 mM simvastatin lactone; C4 symmetry imposed

Sequence of type 1 ryanodine receptor (RyR1), endogenous channel from mouse skeletal muscle, E9PZQ0 1-5035 (natural protein) (E9PZQ0 whole entry): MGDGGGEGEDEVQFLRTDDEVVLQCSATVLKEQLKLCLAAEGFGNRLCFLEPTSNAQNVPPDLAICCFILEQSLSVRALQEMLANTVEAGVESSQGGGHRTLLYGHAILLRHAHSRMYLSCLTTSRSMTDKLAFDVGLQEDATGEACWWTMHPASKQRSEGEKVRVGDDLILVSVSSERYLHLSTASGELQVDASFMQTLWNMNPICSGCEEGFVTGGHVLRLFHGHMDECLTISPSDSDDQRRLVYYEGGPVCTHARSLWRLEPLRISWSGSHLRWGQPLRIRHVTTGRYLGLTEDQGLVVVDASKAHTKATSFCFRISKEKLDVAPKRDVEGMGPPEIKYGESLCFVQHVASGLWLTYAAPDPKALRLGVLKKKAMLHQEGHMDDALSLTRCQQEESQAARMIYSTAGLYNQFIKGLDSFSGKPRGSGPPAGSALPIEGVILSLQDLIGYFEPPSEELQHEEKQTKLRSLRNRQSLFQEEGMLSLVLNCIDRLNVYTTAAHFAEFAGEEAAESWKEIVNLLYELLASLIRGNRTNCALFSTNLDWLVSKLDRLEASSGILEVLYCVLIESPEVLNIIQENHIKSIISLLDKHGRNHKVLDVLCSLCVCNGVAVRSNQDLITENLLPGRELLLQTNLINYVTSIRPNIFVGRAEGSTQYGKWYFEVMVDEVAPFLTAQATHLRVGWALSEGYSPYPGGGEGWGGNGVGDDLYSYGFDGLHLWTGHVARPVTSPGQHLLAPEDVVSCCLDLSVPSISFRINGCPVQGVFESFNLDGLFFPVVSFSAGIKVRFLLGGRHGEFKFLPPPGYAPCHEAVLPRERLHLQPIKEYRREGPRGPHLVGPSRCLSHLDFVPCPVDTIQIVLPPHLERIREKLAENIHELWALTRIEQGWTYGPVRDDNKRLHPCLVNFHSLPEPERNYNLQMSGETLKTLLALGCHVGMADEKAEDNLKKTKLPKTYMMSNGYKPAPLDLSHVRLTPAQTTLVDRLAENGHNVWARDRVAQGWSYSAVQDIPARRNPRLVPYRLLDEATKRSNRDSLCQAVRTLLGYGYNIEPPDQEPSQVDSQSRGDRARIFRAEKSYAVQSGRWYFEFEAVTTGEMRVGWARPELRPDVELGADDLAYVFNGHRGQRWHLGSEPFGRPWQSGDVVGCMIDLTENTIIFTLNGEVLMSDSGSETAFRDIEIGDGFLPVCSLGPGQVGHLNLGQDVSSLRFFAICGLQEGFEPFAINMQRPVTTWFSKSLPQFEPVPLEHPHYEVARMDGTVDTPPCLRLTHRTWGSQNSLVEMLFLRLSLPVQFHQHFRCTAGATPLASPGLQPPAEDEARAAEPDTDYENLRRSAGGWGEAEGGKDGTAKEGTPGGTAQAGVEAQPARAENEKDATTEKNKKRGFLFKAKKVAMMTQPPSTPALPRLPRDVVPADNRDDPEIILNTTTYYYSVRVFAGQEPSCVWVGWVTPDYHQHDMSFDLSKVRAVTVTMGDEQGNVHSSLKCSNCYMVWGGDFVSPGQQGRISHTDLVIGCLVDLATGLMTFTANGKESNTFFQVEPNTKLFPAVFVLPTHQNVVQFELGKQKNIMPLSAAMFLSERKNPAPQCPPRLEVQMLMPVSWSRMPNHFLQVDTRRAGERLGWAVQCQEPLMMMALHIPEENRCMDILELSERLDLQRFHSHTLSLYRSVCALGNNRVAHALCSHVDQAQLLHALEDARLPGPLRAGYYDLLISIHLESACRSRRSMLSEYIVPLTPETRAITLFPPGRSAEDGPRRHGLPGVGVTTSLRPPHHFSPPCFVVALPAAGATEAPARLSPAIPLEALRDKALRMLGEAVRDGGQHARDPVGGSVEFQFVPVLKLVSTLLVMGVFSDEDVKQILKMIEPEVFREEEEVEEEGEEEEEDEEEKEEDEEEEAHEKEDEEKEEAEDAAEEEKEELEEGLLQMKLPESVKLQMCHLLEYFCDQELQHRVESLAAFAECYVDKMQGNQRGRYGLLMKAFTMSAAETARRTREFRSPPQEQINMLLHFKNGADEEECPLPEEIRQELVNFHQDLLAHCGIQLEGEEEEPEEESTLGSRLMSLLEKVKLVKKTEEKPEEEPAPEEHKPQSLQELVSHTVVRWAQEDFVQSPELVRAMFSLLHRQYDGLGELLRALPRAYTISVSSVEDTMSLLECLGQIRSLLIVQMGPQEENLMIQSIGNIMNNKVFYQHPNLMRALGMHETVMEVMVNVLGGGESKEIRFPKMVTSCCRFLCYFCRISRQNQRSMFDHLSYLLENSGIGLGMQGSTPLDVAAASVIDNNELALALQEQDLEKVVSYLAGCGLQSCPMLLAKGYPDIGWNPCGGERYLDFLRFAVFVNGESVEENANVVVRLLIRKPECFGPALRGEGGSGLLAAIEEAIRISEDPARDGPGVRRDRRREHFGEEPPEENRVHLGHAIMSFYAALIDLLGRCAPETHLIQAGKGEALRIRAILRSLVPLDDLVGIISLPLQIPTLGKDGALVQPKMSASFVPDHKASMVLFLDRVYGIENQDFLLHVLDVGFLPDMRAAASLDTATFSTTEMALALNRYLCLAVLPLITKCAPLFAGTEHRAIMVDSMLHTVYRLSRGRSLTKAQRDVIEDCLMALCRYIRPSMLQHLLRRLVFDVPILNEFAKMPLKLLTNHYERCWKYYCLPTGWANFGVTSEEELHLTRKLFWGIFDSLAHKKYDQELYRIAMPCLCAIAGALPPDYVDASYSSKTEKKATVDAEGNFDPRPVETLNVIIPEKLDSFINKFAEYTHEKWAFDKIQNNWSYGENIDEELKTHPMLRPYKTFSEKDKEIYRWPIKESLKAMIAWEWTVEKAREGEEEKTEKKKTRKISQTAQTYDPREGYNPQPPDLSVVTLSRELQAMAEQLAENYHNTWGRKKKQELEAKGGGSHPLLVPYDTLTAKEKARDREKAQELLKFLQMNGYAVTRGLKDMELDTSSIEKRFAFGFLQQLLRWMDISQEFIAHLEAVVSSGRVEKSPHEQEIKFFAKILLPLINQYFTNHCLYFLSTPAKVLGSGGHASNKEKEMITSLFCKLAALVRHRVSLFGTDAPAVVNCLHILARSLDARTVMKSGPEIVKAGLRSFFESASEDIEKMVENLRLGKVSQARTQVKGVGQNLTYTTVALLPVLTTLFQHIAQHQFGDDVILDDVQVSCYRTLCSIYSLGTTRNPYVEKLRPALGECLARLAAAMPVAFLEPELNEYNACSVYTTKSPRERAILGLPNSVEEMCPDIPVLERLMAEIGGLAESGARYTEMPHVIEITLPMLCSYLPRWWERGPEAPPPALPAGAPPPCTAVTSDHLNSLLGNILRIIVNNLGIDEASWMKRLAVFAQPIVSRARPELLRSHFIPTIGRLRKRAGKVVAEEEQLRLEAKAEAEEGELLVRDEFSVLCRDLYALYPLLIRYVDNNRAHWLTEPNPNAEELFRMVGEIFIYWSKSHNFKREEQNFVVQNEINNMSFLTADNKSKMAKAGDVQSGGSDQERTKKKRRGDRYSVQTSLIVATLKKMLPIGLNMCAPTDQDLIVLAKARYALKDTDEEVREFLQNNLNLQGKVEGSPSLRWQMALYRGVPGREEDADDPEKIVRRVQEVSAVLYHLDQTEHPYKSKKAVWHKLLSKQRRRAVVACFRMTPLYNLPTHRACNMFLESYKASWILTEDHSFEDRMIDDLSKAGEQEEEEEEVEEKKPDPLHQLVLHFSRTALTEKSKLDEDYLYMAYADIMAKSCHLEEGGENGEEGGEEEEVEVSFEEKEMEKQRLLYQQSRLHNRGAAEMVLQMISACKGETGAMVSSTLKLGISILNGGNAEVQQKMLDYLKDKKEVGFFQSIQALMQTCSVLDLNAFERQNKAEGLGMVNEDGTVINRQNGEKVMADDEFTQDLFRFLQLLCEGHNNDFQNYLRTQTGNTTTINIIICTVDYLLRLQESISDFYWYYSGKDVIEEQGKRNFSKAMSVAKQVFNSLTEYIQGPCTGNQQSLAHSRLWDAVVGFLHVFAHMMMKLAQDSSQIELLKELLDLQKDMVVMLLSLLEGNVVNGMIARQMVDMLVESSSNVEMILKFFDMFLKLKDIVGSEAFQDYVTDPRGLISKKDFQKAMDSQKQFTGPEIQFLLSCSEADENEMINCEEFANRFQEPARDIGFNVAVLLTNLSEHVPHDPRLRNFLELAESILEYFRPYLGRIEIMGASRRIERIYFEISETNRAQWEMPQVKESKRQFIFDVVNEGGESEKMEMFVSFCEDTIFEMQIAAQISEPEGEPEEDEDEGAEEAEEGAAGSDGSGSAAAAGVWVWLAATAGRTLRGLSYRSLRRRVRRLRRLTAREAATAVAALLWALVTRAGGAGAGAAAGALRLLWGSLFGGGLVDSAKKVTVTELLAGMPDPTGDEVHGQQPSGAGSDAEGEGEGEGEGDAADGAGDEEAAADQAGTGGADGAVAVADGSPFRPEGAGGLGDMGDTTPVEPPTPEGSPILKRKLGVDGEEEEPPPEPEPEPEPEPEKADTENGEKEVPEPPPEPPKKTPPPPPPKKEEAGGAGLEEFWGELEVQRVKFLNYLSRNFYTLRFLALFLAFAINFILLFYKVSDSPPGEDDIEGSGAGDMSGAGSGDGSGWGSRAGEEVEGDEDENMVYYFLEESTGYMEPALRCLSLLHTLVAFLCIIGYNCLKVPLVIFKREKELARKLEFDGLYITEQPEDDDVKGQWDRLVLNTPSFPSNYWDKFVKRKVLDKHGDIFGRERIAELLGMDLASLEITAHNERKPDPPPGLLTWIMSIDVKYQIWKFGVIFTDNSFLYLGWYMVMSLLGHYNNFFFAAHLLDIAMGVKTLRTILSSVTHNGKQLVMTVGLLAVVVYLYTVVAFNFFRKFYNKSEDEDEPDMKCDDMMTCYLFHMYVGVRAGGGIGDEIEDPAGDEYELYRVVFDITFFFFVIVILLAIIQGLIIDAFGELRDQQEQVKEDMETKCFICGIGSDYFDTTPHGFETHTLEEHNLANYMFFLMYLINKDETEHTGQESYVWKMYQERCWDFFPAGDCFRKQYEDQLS

Substance: type 1 ryanodine receptor (RyR1), endogenous channel from mouse skeletal muscle, E9PZQ0 1-5035 (natural protein)
- stoichiometry N: 4

— paper PMC12700559, “Structural basis for simvastatin-induced skeletal muscle weakness associated with type 1 ryanodine receptor T4709M mutation” (The Journal of Clinical Investigation, 2025)
